Measured values taken from PMC10842378.

Assays:
[1] = biological target: FLAG-AP-DHX15 wild type (human) (UniProt O43143); experiment: split reporter
[2] = biological target: FLAG-AP-DHX15 wild type (human) (UniProt O43143); experiment: proximity labelling

Chain of FLAG-AP-DHX15 wild type (human) (O43143 whole entry): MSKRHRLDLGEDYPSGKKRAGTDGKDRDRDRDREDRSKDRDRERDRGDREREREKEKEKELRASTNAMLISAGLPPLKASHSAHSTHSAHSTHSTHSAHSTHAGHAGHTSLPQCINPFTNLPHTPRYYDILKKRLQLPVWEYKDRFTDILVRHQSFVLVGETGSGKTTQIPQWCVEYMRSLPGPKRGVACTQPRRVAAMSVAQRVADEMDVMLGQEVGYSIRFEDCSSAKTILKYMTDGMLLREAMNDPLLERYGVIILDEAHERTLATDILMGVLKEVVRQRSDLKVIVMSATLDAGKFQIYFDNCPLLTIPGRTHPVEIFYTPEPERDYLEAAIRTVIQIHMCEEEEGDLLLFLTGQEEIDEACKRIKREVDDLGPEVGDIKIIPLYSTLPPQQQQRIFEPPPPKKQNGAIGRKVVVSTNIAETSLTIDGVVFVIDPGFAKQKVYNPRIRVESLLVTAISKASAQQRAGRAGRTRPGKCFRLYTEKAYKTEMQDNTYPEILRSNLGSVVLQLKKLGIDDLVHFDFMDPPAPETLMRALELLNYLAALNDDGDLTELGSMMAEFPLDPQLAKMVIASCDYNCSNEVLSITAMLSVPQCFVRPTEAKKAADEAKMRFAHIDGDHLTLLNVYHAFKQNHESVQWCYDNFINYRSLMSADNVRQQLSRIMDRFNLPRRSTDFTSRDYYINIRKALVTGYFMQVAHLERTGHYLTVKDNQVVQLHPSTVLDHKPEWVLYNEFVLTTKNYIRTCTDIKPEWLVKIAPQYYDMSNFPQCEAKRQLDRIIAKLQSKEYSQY

fold increase of total biotinylated protein against FL SUGP1 [1] | fold increase of HA-SUGP1-EX pull-down [2] | Substance
3.2 fold | – | SUGP1 G-patch domain alone fused to an SV40 NLS (Gp-nls), HA-EX construct (domain or fragment)
– | 1.9 fold | HA-SUGP1-EX with the G-patch domain deleted (ΔGp) (from UniProt Q8IWZ8 1-645) (natural protein)
